Measured values taken from paper PMC6105367 (The FEBS journal, 2018).

Target: the molecule itself
Assay: negative-stain electron microscopy

B1: full-length zebrafish ASC, recombinant, His-NusA-GB1 tag cleaved off (natural protein, UniProt Q9I9N6 1-203, looked up)
chain: MAESFKEHLQEAFEDLGADNLRKFKSKLGDRRQEPRVTKSAIEKLKDEIDLADLMVGVFTSKDAVSVTVEILRAIKCNAVADDLLRNTGQSESKGALSDESKCASSKAVSKVAFSKVNFIDEHWKELIDRVNNVDPILDILRQKKVITNEDYCTIRNKETPQKKMRELLTGPITCAGNKGKEVLYDALRESNKFLMDDLEDAE
- binding result: binds
